Among the data in PMC7100586 are stoichiometry N values, retold here.

This experiment concerns the target clathrin heavy chain (Sus scrofa). Nature of the experiment: cryo-EM structure.

Substance clathrin heavy chain (natural protein) returned a stoichiometry N of 3.

What is called stoichiometry N is a count of units in the complex or per binding partner.
